# Data: publication PMC11488100, “PET imaging of CXCR4 expression using [^18F]AlF-NOTA-QHY-04 for hematologic malignancy and solid tumors” (Theranostics, 2024)
# Bridge positions count the residues as written; N and C are the ends. Square brackets hold non-standard residues; d marks the D form. Peptide text beside a SMILES is read from it. * marks the point of attachment. NOTA = O=C(O)CN1CCN(CC(=O)O)CCN(CC(=O)*)CC1; 2Nal = N[C@@H](Cc1ccc2ccccc2c1)C(=O)O; Pen = CC(C)(S)[C@H](N)C(=O)O; 4Amb = NCc1ccc(C(=O)O)cc1; Ahx = NCCCCCC(=O)O
# Key:
# [1] = format: physicochemical; details: pH 7.4
# Description: Synthesis of [18F]AlF-NOTA-QHY-04
# Briefly, NOTA-QHY-04 was radiolabeled with [18F]F-, following procedures. 10-20
# GBq [18F]F− produced by medical cyclotron (MINITRACE Cyclotron, GE, USA) was
# captured with a QMA SepPak light cartridge (Waters Corporation, USA) and then eluted
# with 300-500 μL saline (0.9% NaCl). Then, the saline containing [18F]F− was added to
# reaction vial, followed by 6-12 μL AlCl3 (10 mM in 0.1M sodium acetate buffer, pH 4),
# 200 μL acetonitrile (≥ 99.9%, Sigma-Aldrich, USA), and 20-30 μL of NOTA-QHY-04
# (20 mg/mL in metal-free water). The vial was heated for 10 min at 110°C. After cooling,
# the reaction system was diluted with 10 mL of water and was transferred to a Qasis light
# HLB cartridge (Waters Corporation, USA). The cartridge was then washed with 10 mL of
# water to remove the free [18F]F−. Finally, the desired product was eluted and collected
# with 0.6 mL of ethanol. The product was reconstituted in saline and passed through a 0.22
# μm syringe filter (Pall Corporation, USA) into a sterile vial.
# Octanol-water partition coefficient (logD)
# The partition coefficient (logD) of [18F]AlF-NOTA-QHY-04 was determined in a […]
# from each phase were measured for radioactivity using a γ-counter. […]
# repeated three times to ensure the accuracy of the results. The logD was calculated by
# dividing the average radioactivity in the 1 -octanol layer by that in the PBS layer, and the […]
# [2] = system: NCI-H69 subcutaneous tumor xenografts; set-up: species or system mice; details: mouse, in vivo
# Description: (§1) The xenografted mice were injected with [^18F]AlF-NOTA-QHY-04 (3.70 ± 0.74 MBq) in about 150 μL saline via the tail vein. All the PET scans were performed with micro-PET/CT (IRIS PET/CT, Inviscan, France) and the radioactivity were expressed as %ID/mL. Detailed procedures for dynamic, static imaging and blocking studies are provided in the supplemental materials. Biodistribution studies were conducted using mice with xenografted A549/CXCR4 tumors with and without blocking (n = 3). The mice were sacrificed immediately after static PET/CT 1 h post injection (p.i.), then the tumors and organs were quickly collected, weighed and counted for radioactivity by a γ-counter. The γ-counter activity readings were background- and decay-corrected and represented as the percentage of injected dose per gram of tissue (%ID/g).
# 7.4, 150 mM NaCl, 0.005% tween-20) with continuous shaking at 1000 rpm. Biotinylated CXCR4 was immobilized on Super Streptavidin (SSA) biosensors by immersing the sensors in a protein solution of 35 µg/mL. […]
# and 1 μM NOTA-QHY-04 sample) was prepared and flowed. […] Prior to fitting, the data were baseline-subtracted and analyzed using a 1:1 binding model and the ForteBio data analysis software. Mean Kd value was determined by applying a global fit to all the data. […]
# NaOH. Finally, the cell lysates were collected and measured by an automatic gamma counter (2470 Wizard2, PerkinElmer). […]
# [3] = set-up: species or system mice; details: mouse, in vivo
# Description: as §1
smiles,measurement,setting,value
C[C@H](NC(=O)[C@H](CCCNC(=N)N)NC(=O)CCCCCNC(=O)c1ccc(CNC(=O)CN2CCN(CC(=O)O)CCN(CC(=O)O)CC2)cc1)C(=O)N[C@@H]1CSSC(C)(C)[C@@H](C(=O)O)NC(=O)[C@H](Cc2c[nH]cn2)NC(=O)[C@H](Cc2ccc3ccccc3c2)NC(=O)[C@H](CCCNC(=N)N)NC1=O [[^18F]AlF-NOTA-QHY-04] ({NOTA-4Amb-Ahx}-RA[dC]R[2Nal]H[Pen]-OH; disulfide 3-7),logD,[1],-2.21 ± 0.06
same,time of highest tumor uptake,[2],about 50 min
same,Tumor-to-organ ratio T/Blood,[3],3.63 ± 0.56
same,Tumor-to-organ ratio T/Heart,[3],7.77 ± 0.60
same,Tumor-to-organ ratio T/Kidney,[3],0.23 ± 0.05
same,Tumor-to-organ ratio T/Liver,[3],1.84 ± 0.17
same,Tumor-to-organ ratio T/Muscle,[3],10.94 ± 5.33
